Patent publication US20210087286A1 (Amgen, published 2021)
Numbering of substitutions follows the chain as printed.

T1: huGIPR ECD (human, UniProt P48546 21-129, limits assumed)
T1 construct: Soluble analyte of the Biacore assay; also called human GIPR extracellular domain
T1 sequence: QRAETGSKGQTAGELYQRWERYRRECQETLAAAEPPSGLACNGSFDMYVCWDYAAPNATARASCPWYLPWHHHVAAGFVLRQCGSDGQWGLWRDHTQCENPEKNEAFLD

T2: human GIPR (human, UniProt P48546 22-466)
T2 sequence: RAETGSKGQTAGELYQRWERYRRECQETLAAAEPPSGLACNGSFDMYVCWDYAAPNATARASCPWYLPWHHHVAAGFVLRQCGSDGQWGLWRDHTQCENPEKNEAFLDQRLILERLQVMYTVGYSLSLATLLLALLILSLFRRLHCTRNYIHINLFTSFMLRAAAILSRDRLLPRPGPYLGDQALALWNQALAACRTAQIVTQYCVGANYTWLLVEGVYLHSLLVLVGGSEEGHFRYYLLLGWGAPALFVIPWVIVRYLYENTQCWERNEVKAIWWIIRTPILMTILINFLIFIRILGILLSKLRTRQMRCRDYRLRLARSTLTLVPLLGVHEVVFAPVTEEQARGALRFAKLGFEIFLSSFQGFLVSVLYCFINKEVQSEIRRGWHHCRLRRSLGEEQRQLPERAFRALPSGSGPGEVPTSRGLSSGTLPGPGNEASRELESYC

B1: 2G10.316 (antibody, human IgG1, kappa, N297G, V domains shown)
VH: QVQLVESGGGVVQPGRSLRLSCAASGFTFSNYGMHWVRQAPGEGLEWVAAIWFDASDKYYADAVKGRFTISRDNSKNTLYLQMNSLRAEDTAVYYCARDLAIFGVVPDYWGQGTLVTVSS
VL: EIVMTQSPATLSVSPGERATLSCRASQSVFRHLAWYQQKPGQAPRLLIYEAATRATGIPARFSGSGSGTEFTLTISSLQSEDFAVYYCQQYQNWPLTFGGGTKVEIKR
notes: also called SS-26193
B2: 2G10.307 (antibody, human IgG1, kappa, N297G, V domains shown)
VH: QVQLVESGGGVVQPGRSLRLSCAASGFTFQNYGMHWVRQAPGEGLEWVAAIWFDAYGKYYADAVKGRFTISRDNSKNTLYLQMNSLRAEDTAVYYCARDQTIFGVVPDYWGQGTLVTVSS
VL: B1 VL with F30D, Q92N, N93Q
notes: also called SS-26184
B3: 2G10.312 (antibody, human IgG1, kappa, N297G, V domains shown)
VH: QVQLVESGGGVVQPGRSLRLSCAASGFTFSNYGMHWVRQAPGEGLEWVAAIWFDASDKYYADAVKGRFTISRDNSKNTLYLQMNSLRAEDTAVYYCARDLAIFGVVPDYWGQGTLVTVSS
VL: B1 VL with R31E, Q92N
notes: also called SS-26189
B4: 2G10.329 (antibody, human IgG1, kappa, N297G, V domains shown)
VH: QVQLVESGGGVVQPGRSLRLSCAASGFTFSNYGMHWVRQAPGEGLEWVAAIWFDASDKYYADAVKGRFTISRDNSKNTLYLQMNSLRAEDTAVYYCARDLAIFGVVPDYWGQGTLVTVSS
VL: B1 VL with F30E, R31Q, Q92N
notes: also called SS-26206
B5: 2G10.328 (antibody, human IgG1, kappa, N297G, V domains shown)
VH: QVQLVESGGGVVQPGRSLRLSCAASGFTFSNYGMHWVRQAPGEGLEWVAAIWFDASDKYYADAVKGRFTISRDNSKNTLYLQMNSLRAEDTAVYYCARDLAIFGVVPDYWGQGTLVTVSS
VL: B1 VL with F30S, R31E
B6: 2G10.305 (antibody, human IgG1, kappa, N297G, V domains shown)
VH: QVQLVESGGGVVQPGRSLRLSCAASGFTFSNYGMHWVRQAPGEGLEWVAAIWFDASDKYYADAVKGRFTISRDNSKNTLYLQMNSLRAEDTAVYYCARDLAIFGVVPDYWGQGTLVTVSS
VL: B1 VL with F30D, R31V, H32N, E50N
notes: also called SS-26182
B7: 2G10.315 (antibody, human IgG1, kappa, N297G, V domains shown)
VH: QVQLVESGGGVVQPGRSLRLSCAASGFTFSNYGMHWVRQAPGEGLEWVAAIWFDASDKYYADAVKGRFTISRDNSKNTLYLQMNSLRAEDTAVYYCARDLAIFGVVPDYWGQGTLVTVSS
VL: B1 VL with F30L, R31T
notes: also called SS-26192
B8: 2G10.311 (antibody, human IgG1, kappa, N297G, V domains shown)
VH: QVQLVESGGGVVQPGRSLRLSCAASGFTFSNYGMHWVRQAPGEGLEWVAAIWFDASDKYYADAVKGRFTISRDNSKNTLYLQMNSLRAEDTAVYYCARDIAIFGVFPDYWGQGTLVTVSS
VL: B1 VL with F30N, R31V, E50Q, Q92N, N93Q
notes: also called SS-26188
B9: 2G10.337 (antibody, human IgG1, kappa, N297G, V domains shown)
VH: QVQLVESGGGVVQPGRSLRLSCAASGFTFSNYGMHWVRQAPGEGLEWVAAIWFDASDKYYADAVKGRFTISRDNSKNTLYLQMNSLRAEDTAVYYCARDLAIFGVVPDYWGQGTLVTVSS
VL: B1 VL with F30D, R31V, H32N, Q92N, N93Q
notes: also called SS-26214
B10: 2G10.334 (antibody, human IgG1, kappa, N297G, V domains shown)
VH: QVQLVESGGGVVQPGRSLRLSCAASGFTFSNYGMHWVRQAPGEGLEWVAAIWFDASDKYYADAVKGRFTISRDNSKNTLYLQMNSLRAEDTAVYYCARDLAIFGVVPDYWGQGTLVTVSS
VL: B1 VL with F30N, R31L, H32N, E50Q, Q92N, N93Q
notes: also called SS-26211
B11: 2G10.314 (antibody, human IgG1, kappa, N297G, V domains shown)
VH: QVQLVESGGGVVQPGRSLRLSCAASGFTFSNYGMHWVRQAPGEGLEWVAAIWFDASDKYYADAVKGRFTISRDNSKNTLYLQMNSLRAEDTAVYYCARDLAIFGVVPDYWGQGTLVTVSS
VL: B1 VL with F30H, R31S, Q92N
notes: also called SS-26191
B12: 2G10.325 (antibody, human IgG1, kappa, N297G, V domains shown)
VH: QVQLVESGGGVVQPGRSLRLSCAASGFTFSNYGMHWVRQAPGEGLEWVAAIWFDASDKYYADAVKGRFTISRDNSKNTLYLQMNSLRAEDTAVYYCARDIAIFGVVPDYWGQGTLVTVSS
VL: B1 VL with R31E, Q92N, N93Q
B13: 2G10.318 (antibody, human IgG1, kappa, N297G, V domains shown)
VH: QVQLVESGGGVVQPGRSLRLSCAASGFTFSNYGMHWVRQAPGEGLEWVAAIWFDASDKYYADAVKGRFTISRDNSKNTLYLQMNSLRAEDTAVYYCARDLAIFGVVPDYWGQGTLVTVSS
VL: B1 VL with F30L, R31S, Q92N
B14: 2G10.344 (antibody, human IgG1, kappa, N297G, V domains shown)
VH: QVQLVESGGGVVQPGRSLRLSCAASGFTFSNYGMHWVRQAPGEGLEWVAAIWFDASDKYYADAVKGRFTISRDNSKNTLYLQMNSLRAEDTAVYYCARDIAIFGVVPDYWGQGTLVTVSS
VL: B1 VL with F30S, R31S, N93Q
B15: 2G10.303 (antibody, human IgG1, kappa, N297G, V domains shown)
VH: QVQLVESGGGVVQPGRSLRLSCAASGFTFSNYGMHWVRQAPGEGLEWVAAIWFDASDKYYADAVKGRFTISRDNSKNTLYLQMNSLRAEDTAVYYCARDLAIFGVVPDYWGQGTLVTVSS
VL: B1 VL with F30D
notes: also called SS-26180
B16: 2G10.345 (antibody, human IgG1, kappa, N297G, V domains shown)
VH: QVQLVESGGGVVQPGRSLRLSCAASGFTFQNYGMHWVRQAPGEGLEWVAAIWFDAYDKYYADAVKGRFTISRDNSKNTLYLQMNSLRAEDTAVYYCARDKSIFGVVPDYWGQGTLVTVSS
VL: B1 VL with F30N, Q92N
B17: 2G10.327 (antibody, human IgG1, kappa, N297G, V domains shown)
VH: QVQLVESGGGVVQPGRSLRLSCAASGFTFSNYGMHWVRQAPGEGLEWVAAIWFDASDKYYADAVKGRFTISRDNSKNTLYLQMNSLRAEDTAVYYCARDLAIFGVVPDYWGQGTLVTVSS
VL: B1 VL with F30H, R31S, Q92N, N93Q
B18: 2G10.336 (antibody, human IgG1, kappa, N297G, V domains shown)
VH: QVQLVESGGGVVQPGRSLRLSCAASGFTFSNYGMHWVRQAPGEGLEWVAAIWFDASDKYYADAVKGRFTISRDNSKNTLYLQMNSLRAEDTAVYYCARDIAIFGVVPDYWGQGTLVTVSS
VL: B1 VL with F30Q, R31S
notes: also called SS-26213
B19: 2G10.340 (antibody, human IgG1, kappa, N297G, V domains shown)
VH: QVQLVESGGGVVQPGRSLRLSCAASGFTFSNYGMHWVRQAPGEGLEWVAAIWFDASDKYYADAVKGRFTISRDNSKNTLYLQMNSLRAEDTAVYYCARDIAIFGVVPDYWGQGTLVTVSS
VL: B1 VL with F30H, R31T, H32N, E50N
B20: 2G10.304 (antibody, human IgG1, kappa, N297G, V domains shown)
VH: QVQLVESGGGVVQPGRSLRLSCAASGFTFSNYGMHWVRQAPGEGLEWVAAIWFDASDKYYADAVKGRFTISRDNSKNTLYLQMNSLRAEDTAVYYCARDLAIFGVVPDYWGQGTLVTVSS
VL: B1 VL with F30N
notes: also called SS-26181
B21: 2G10.301 (antibody, human IgG1, kappa, N297G, V domains shown)
VH: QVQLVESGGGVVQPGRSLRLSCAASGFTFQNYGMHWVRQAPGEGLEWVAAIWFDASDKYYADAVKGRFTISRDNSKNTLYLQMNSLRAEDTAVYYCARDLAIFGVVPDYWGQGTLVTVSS
VL: B1 VL with R31S
notes: also called SS-26178
B22: 2G10.308 (antibody, human IgG1, kappa, N297G, V domains shown)
VH: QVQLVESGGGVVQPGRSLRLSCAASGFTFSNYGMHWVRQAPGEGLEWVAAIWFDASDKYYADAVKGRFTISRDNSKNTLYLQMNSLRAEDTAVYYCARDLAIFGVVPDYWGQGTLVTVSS
VL: B1 VL with R31S, N93Q
notes: also called SS-26185
B23: 2G10.321 (antibody, human IgG1, kappa, N297G, V domains shown)
VH: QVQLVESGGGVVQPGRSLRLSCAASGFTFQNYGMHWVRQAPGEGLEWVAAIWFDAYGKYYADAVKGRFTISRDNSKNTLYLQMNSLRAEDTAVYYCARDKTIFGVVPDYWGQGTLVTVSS
VL: B1 VL with F30N, Q92N, N93Q
B24: 2G10.341 (antibody, human IgG1, kappa, N297G, V domains shown)
VH: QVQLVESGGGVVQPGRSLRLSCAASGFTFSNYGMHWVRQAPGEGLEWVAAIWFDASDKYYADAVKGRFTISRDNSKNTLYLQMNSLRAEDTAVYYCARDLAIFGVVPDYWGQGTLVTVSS
VL: B1 VL with F30D, R31V, Q92N, N93Q
B25: 2G10.313 (antibody, human IgG1, kappa, N297G, V domains shown)
VH: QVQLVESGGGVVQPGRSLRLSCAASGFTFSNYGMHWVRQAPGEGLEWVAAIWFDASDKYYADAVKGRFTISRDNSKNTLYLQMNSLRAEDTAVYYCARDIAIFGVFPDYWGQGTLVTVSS
VL: B1 VL with F30D, Q92N, N93Q
notes: also called SS-26190
B26: 2G10.330 (antibody, human IgG1, kappa, N297G, V domains shown)
VH: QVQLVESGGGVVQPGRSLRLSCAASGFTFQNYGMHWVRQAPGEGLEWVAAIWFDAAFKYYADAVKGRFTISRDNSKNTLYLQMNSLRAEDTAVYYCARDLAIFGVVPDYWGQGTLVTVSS
VL: B1 VL with F30D, R31Q, E50Q
notes: also called SS-26207
B27: 2G10.324 (antibody, human IgG1, kappa, N297G, V domains shown)
VH: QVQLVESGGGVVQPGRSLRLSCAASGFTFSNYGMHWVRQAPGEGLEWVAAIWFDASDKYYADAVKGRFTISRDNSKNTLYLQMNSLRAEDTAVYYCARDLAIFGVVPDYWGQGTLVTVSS
VL: B1 VL with F30L, R31S
B28: 2G10.335 (antibody, human IgG1, kappa, N297G, V domains shown)
VH: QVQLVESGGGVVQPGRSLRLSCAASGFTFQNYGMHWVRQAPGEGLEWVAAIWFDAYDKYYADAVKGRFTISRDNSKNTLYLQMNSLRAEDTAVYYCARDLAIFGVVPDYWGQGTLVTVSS
VL: B1 VL with F30T, R31S, Q92N, N93Q
notes: also called SS-26212
B29: 2G10.319 (antibody, human IgG1, kappa, N297G, V domains shown)
VH: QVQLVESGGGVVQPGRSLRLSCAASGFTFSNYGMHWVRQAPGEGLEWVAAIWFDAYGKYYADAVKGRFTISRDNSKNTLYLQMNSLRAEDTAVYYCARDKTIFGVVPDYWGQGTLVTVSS
VL: B1 VL
B30: 2G10.306 (antibody, human IgG1, kappa, N297G, V domains shown)
VH: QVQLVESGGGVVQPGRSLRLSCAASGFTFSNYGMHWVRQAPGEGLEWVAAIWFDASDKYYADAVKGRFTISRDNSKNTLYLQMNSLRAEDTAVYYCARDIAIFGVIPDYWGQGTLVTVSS
VL: B1 VL with F30L, R31T
notes: also called SS-26183
B31: 2G10.302 (antibody, human IgG1, kappa, N297G, V domains shown)
VH: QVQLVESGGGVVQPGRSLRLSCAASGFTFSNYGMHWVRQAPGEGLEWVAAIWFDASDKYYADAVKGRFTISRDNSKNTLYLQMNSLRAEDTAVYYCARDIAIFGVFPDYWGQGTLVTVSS
VL: B1 VL with R31E, Q92N
notes: also called SS-26179
B32: 2G10.339 (antibody, human IgG1, kappa, N297G, V domains shown)
VH: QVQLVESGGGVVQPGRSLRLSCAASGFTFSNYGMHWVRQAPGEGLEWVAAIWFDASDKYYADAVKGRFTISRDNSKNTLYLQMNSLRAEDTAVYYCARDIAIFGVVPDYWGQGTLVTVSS
VL: B1 VL with R31Q, H32N, E50Q, Q92N, N93Q
B33: 2G10.322 (antibody, human IgG1, kappa, N297G, V domains shown)
VH: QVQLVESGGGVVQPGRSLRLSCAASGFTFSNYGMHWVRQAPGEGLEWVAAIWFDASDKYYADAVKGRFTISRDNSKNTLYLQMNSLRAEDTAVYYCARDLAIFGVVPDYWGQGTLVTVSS
VL: B1 VL with F30M, R31S
B34: 2G10.338 (antibody, human IgG1, kappa, N297G, V domains shown)
VH: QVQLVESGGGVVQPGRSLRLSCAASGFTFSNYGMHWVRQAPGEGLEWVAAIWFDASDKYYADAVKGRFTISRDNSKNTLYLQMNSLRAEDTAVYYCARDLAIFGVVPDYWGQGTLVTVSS
VL: B1 VL with F30H, R31H, Q92N, N93Q
B35: 2G10.333 (antibody, human IgG1, kappa, N297G, V domains shown)
VH: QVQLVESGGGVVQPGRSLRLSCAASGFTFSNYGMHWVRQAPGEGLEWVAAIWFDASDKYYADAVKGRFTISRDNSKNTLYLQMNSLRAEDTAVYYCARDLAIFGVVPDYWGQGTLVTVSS
VL: B1 VL with F30S, N93H
notes: also called SS-26210
B36: 2G10.309 (antibody, human IgG1, kappa, N297G, V domains shown)
VH: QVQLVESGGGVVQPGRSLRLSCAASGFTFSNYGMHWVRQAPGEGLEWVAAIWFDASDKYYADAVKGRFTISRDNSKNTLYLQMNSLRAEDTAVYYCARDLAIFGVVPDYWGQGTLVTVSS
VL: B1 VL with F30E
notes: also called SS-26186
B37: 2G10.342 (antibody, human IgG1, kappa, N297G, V domains shown)
VH: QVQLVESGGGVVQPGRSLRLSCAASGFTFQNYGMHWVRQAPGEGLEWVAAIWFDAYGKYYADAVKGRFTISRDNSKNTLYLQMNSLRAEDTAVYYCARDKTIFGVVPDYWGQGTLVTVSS
VL: B1 VL with F30E, N93Q
B38: 2G10.331 (antibody, human IgG1, kappa, N297G, V domains shown)
VH: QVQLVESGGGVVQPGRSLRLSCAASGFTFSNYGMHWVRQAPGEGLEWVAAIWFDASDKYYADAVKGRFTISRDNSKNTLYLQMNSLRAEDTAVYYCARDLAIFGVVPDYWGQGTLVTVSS
VL: B1 VL with F30D, R31L
notes: also called SS-26208
B39: 2G10.317 (antibody, human IgG1, kappa, N297G, V domains shown)
VH: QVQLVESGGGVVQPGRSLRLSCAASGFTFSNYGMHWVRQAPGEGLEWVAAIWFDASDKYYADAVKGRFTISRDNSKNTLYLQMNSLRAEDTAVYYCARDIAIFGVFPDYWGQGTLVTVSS
VL: B1 VL with F30N, N93Q
notes: also called SS-26194
B40: 2G10.326 (antibody, human IgG1, kappa, N297G, V domains shown)
VH: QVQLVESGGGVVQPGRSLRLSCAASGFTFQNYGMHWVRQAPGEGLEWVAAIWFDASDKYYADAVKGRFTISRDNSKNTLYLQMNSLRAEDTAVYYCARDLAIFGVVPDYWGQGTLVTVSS
VL: B1 VL with F30L, R31S, N93Q
B41: 2G10.332 (antibody, human IgG1, kappa, N297G, V domains shown)
VH: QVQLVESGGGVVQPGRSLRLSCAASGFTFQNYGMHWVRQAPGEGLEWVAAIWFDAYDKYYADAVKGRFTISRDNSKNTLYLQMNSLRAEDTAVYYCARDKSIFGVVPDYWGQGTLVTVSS
VL: B1 VL with F30L, R31S, Q92N
notes: also called SS-26209
B42: 2G10.343 (antibody, human IgG1, kappa, N297G, V domains shown)
VH: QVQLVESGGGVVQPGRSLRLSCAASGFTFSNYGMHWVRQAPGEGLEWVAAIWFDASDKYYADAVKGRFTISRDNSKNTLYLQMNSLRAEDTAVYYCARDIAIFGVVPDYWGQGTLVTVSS
VL: B1 VL with F30L, R31E, Q92N
B43: 2G10.323 (antibody, human IgG1, kappa, N297G, V domains shown)
VH: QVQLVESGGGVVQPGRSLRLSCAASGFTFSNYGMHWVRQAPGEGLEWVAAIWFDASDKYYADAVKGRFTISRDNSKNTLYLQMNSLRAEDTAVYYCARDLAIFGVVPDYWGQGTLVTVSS
VL: B1 VL with F30H

What was measured:
[1] = target: T1, huGIPR ECD; experiment: SPR (Biacore T200), mAb captured via goat anti-huFc, 200 nM huGIPR ECD analyte
Method: Immobilization of Goat-anti-huFc antibody to a S-CM5 sensor chip surface was performed according to manufacturer's instructions. The Biacore instrument running buffer is 0.005% P20/PBS 1×, pH7.4, no calcium chloride, no magnesium chloride. Briefly, carboxyl groups on the sensor chip surfaces were activated by injecting 60 μL of a mixture containing 0.2 M N-ethyl-N′-(dimethylaminopropyl) carbodiimide (EDC) and 0.05 M N-hydroxysuccinimide (NHS). Goat-anti-huFc antibody was diluted in 10 mM sodium acetate, pH 4.0 at 20 μg/ml and injected over the activated chip surface at 30 uL/min for 6 minutes. Excess reactive groups on the surfaces were deactivated by injecting 60 μL of 1 M ethanolamine. Final immobilized level was ˜8000 resonance units (RU).
Binding assays were carried out on the immobilized goat anti-huFc antibody surface by Biacore T200. The experiment was performed at 25° C. The instrument running buffer was 0.005% P20/PBS. The goat anti-huFc capture antibody was covalently attached to the sensor chip surface via standard amine coupling to flow cells channel 1-4. The anti-huGIPR antibodies were diluted in sample buffer (0.1 mg/ml BSA, 0.005% P20, PBS) to ˜10 nM then captured to flow cells channel 2, 3, 4. Flow cell channel 1 was as a blank reference surface without injection of anti-huGIPR antibody. The captured antibody response range was ˜250 RU. Then 200 nM huGIPR ECD was injected over the goat anti-huFc antibody captured anti-huGIPR antibody surfaces at flow rate 50 ul/min for 3 minutes. After a 10 minutes dissociation, each surface was regenerated by injecting 10 mM Glycine, pH 1.5 for 30 seconds twice.

[2] = target: T2, human GIPR; experiment: cell-based or functional assay

| Binder | koff [1] | cAMP IC50 [2] |
| --- | --- | --- |
| B1 | < 5e-05 s⁻¹ | 14.7 nM |
| B2 | 6e-05 s⁻¹ | 17.4 nM |
| B3 | < 5e-05 s⁻¹ | 23.2 nM |
| B4 | 6e-05 s⁻¹ | 26.8 nM |
| B5 | 7e-05 s⁻¹ | 24.4 nM |
| B6 | < 5e-05 s⁻¹ | 27.2 nM |
| B7 | < 5e-05 s⁻¹ | 22 nM |
| B8 | 6e-05 s⁻¹ | 14.9 nM |
| B9 | < 5e-05 s⁻¹ | 32.5 nM |
| B10 | 6e-05 s⁻¹ | 13.7 nM |
| B11 | 6e-05 s⁻¹ | 17.5 nM |
| B12 | < 5e-05 s⁻¹ | 26.2 nM |
| B13 | < 5e-05 s⁻¹ | 20.9 nM |
| B14 | 6e-05 s⁻¹ | 21.9 nM |
| B15 | 7e-05 s⁻¹ | 23.1 nM |
| B16 | 8e-05 s⁻¹ | 18.9 nM |
| B17 | < 5e-05 s⁻¹ | 19.3 nM |
| B18 | 0.0002 s⁻¹ | 29.6 nM |
| B19 | 6e-05 s⁻¹ | 25.9 nM |
| B20 | < 5e-05 s⁻¹ | 16.9 nM |
| B21 | 7e-05 s⁻¹ | 17.6 nM |
| B22 | < 5e-05 s⁻¹ | 18.3 nM |

| Binder | koff [1] | cAMP IC50 [2] |
| --- | --- | --- |
| B23 | < 5e-05 s⁻¹ | 7.46 nM |
| B24 | 7e-05 s⁻¹ | 24.7 nM |
| B25 | < 5e-05 s⁻¹ | 20.7 nM |
| B26 | < 5e-05 s⁻¹ | 18.6 nM |
| B27 | < 5e-05 s⁻¹ | 14.1 nM |
| B28 | 6e-05 s⁻¹ | 25.9 nM |
| B29 | 6e-05 s⁻¹ | 7.9 nM |
| B30 | < 5e-05 s⁻¹ | 20.7 nM |
| B31 | < 5e-05 s⁻¹ | 19.9 nM |
| B32 | 7e-05 s⁻¹ | 22.6 nM |
| B33 | 6e-05 s⁻¹ | 17.9 nM |
| B34 | 8e-05 s⁻¹ | 23.4 nM |
| B35 | < 5e-05 s⁻¹ | 12.1 nM |
| B36 | < 5e-05 s⁻¹ | 29.5 nM |
| B37 | < 5e-05 s⁻¹ | 11.6 nM |
| B38 | 5e-05 s⁻¹ | 19.7 nM |
| B39 | < 5e-05 s⁻¹ | 13.7 nM |
| B40 | 6e-05 s⁻¹ | 26.6 nM |
| B41 | 6e-05 s⁻¹ | 12.9 nM |
| B42 | 6e-05 s⁻¹ | 37.6 nM |
| B43 | < 5e-05 s⁻¹ | 17.4 nM |
